The sequences below were run on Escherichia coli TOP10 (assay: shrunken log2 fold change of peptide-encoding DNA abundance (4.5 h post-induction vs induction); higher = less antimicrobial activity (less host growth inhibition)). Conditions: time post-induction: 4.5 h; library: site-saturation at positions 5, 18, 19, 20.
RRIRERPPRLPRPRPRPERIPRP was tested, and the “shrunken log2 fold change” value was -0.0271.
With RRIRTRPPRLPRPRPRPFLQPRP the “shrunken log2 fold change” value was 0.0237.
In the case of RRIRNRPPRLPRPRPRPSHFPRP, the “shrunken log2 fold change” value is reported as -0.647.
In the case of RRIRVRPPRLPRPRPRPQCVPRP, the “shrunken log2 fold change” value is reported as -0.218.
In the case of RRIRARPPRLPRPRPRPVIYPRP, the “shrunken log2 fold change” value is reported as -0.308.
With RRIRPRPPRLPRPRPRPILHPRP the “shrunken log2 fold change” value was -0.277.
In the case of RRIRDRPPRLPRPRPRPYFLPRP, the “shrunken log2 fold change” value is reported as -0.49.
With RRIRLRPPRLPRPRPRPMGGPRP the “shrunken log2 fold change” value was 0.26.
For RRIRTRPPRLPRPRPRPMYNPRP, the “shrunken log2 fold change” value was -0.325.
RRIRQRPPRLPRPRPRPSGKPRP was tested, and the “shrunken log2 fold change” value was -0.147.
With RRIRGRPPRLPRPRPRPRPYPRP the “shrunken log2 fold change” value was 0.246.
In the case of RRIRGRPPRLPRPRPRPAWPPRP, the “shrunken log2 fold change” value is reported as 0.892.
RRIRERPPRLPRPRPRPAMNPRP was tested, and the “shrunken log2 fold change” value was -0.28.
RRIRNRPPRLPRPRPRPFTKPRP was tested, and the “shrunken log2 fold change” value was -0.0763.
In the case of RRIRARPPRLPRPRPRPAADPRP, the “shrunken log2 fold change” value is reported as 1.13.
With RRIRNRPPRLPRPRPRPDVEPRP the “shrunken log2 fold change” value was -0.00443.
With RRIRVRPPRLPRPRPRPNSVPRP the “shrunken log2 fold change” value was -0.00107.
With RRIRRRPPRLPRPRPRPMYYPRP the “shrunken log2 fold change” value was -0.232.
RRIRKRPPRLPRPRPRPEQKPRP was tested, and the “shrunken log2 fold change” value was 0.125.
In the case of RRIRQRPPRLPRPRPRPAPYPRP, the “shrunken log2 fold change” value is reported as 0.204.
In the case of RRIRGRPPRLPRPRPRPDLKPRP, the “shrunken log2 fold change” value is reported as 0.0305.
In the case of RRIRSRPPRLPRPRPRPFLRPRP, the “shrunken log2 fold change” value is reported as -0.0915.
For RRIRTRPPRLPRPRPRPLFWPRP, the “shrunken log2 fold change” value was 0.134.
For RRIRWRPPRLPRPRPRPFPDPRP, the “shrunken log2 fold change” value was 0.116.
RRIRFRPPRLPRPRPRPRKFPRP was tested, and the “shrunken log2 fold change” value was 0.171.
For RRIRERPPRLPRPRPRPEADPRP, the “shrunken log2 fold change” value was 0.0032.
RRIRCRPPRLPRPRPRPTVTPRP was tested, and the “shrunken log2 fold change” value was -0.208.
RRIRVRPPRLPRPRPRPVDDPRP was tested, and the “shrunken log2 fold change” value was 0.177.
With RRIRWRPPRLPRPRPRPSQRPRP the “shrunken log2 fold change” value was -0.0741.
For RRIRARPPRLPRPRPRPFNAPRP, the “shrunken log2 fold change” value was -0.307.
For RRIRSRPPRLPRPRPRPFDYPRP, the “shrunken log2 fold change” value was -0.0792.
With RRIRGRPPRLPRPRPRPAQNPRP the “shrunken log2 fold change” value was 0.81.
For RRIRCRPPRLPRPRPRPCQIPRP, the “shrunken log2 fold change” value was 0.0258.
For RRIRLRPPRLPRPRPRPEVTPRP, the “shrunken log2 fold change” value was -0.046.
In the case of RRIRRRPPRLPRPRPRPYPMPRP, the “shrunken log2 fold change” value is reported as -0.187.
For RRIRYRPPRLPRPRPRPTIKPRP, the “shrunken log2 fold change” value was -0.151.
RRIRDRPPRLPRPRPRPWPVPRP was tested, and the “shrunken log2 fold change” value was 0.531.
With RRIRVRPPRLPRPRPRPHTFPRP the “shrunken log2 fold change” value was -0.105.
RRIRNRPPRLPRPRPRPKIPPRP was tested, and the “shrunken log2 fold change” value was -0.255.
In the case of RRIRWRPPRLPRPRPRPTDMPRP, the “shrunken log2 fold change” value is reported as 0.00348.
RRIRRRPPRLPRPRPRPNKVPRP was tested, and the “shrunken log2 fold change” value was -0.213.
RRIRHRPPRLPRPRPRPFIYPRP was tested, and the “shrunken log2 fold change” value was -0.831.
In the case of RRIRDRPPRLPRPRPRPGQMPRP, the “shrunken log2 fold change” value is reported as -0.0138.
In the case of RRIRVRPPRLPRPRPRPYWDPRP, the “shrunken log2 fold change” value is reported as 0.0849.
With RRIRKRPPRLPRPRPRPSEHPRP the “shrunken log2 fold change” value was -0.183.
RRIRFRPPRLPRPRPRPCDNPRP was tested, and the “shrunken log2 fold change” value was -0.0843.
For RRIRVRPPRLPRPRPRPWLYPRP, the “shrunken log2 fold change” value was -0.157.
For RRIRCRPPRLPRPRPRPNLNPRP, the “shrunken log2 fold change” value was -0.575.
With RRIRWRPPRLPRPRPRPPQSPRP the “shrunken log2 fold change” value was 0.128.
RRIRYRPPRLPRPRPRPTNSPRP was tested, and the “shrunken log2 fold change” value was -0.342.
With RRIRLRPPRLPRPRPRPGMAPRP the “shrunken log2 fold change” value was 0.145.
With RRIRMRPPRLPRPRPRPATAPRP the “shrunken log2 fold change” value was 1.17.
RRIRYRPPRLPRPRPRPIFDPRP was tested, and the “shrunken log2 fold change” value was -0.737.
RRIRHRPPRLPRPRPRPAWHPRP was tested, and the “shrunken log2 fold change” value was -0.132.
In the case of RRIRWRPPRLPRPRPRPKHYPRP, the “shrunken log2 fold change” value is reported as 0.473.
For RRIRFRPPRLPRPRPRPKLKPRP, the “shrunken log2 fold change” value was 0.0386.
RRIRYRPPRLPRPRPRPIHWPRP was tested, and the “shrunken log2 fold change” value was -0.182.
In the case of RRIRKRPPRLPRPRPRPQDYPRP, the “shrunken log2 fold change” value is reported as 0.118.
In the case of RRIRMRPPRLPRPRPRPNWEPRP, the “shrunken log2 fold change” value is reported as 0.0757.
With RRIRWRPPRLPRPRPRPTWWPRP the “shrunken log2 fold change” value was 0.79.

— the supplement of paper PMC9112550, “Optimization of the antimicrobial peptide Bac7 by deep mutational scanning” (BMC Biology, 2022)
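Note: peptides expressed intracellularly from a pBAD plasmid library in pooled LB shake-flask culture, induced with 0.3% L-arabinose, DNA abundance read by NGS, three biological replicates, DESeq2 with apeglm shrinkage.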
